From publication PMC4878873
Each block holds one substance with its values, some of them ahead of it.

Tests used:
[1] = molecular target: COP9-Signalosome (CSN), wild type (human) (UniProt Q13098)
[2] = molecular target: RBX1; assay: anti-Flag immunoprecipitation, SILAC mass spectrometry; details: HEK293T; mutant in light medium, wild type in heavy medium; read off a plot
[3] = molecular target: Elongin B; assay: as above; details: HEK293T; mutant in light medium, wild type in heavy medium; read off a plot
[4] = molecular target: Elongin C; assay: as above; details: HEK293T; mutant in light medium, wild type in heavy medium; read off a plot
[5] = molecular target: CUL1; assay: as above; details: HEK293T; mutant in light medium, wild type in heavy medium; read off a plot
[6] = molecular target: CUL2; assay: as above; details: HEK293T; mutant in light medium, wild type in heavy medium; read off a plot
[7] = molecular target: CUL4B; assay: as above; details: HEK293T; mutant in light medium, wild type in heavy medium; read off a plot
[8] = molecular target: DDB1; assay: as above; details: HEK293T; mutant in light medium, wild type in heavy medium; read off a plot
[9] = molecular target: CUL4A; assay: as above; details: HEK293T; mutant in light medium, wild type in heavy medium; read off a plot
[10] = molecular target: CUL3; assay: as above; details: HEK293T; mutant in light medium, wild type in heavy medium; read off a plot
[11] = molecular target: SKP1; assay: as above; details: HEK293T; mutant in light medium, wild type in heavy medium; read off a plot
[12] = molecular target: Cul1^d-N8/Rbx1^∆RING (human) (UniProt Q13616)
[13] = molecular target: Cul1^d-N8/Rbx1^∆RING (human) (UniProt Q13616); remark: listed apart in the source

Chain of unlabeled Cul1/Rbx1 (Q13616 whole entry): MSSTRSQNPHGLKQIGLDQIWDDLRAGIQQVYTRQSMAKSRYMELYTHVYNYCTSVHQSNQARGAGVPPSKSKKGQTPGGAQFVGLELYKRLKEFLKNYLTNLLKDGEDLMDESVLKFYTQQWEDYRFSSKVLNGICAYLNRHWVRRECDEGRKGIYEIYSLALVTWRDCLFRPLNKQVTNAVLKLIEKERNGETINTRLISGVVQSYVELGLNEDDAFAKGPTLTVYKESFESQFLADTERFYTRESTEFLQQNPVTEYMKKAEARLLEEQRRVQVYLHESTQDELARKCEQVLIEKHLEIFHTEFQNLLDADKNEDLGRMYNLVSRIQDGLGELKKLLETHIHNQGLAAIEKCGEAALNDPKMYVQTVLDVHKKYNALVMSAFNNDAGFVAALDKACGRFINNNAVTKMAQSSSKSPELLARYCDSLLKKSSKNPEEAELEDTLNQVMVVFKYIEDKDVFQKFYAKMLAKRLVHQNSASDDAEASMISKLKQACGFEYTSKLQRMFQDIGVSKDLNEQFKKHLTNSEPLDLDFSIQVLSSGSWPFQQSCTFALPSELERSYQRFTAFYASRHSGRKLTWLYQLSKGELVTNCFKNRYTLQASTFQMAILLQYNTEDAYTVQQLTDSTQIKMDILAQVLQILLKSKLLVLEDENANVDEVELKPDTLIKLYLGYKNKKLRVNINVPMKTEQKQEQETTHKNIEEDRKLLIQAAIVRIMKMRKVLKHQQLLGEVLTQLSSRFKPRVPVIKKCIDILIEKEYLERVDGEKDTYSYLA
Chain of unlabeled Cul1/Rbx1 (P62877 whole entry): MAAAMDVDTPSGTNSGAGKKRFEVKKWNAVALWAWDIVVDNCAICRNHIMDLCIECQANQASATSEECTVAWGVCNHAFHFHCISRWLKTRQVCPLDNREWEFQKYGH

IC50 [1]: 390 nM
Substance: unlabeled Cul1/Rbx1 (from UniProt Q13616 1-776; P62877 1-108) (complex)

ratio to parent [2]: 0.92
ratio to parent [3]: 0.85
ratio to parent [4]: 0.8
ratio to parent [5]: 0.9
ratio to parent [6]: 0.83
ratio to parent [7]: 0.63
ratio to parent [8]: 0.78
ratio to parent [9]: 0.57
ratio to parent [10]: 0.75
ratio to parent [11]: 0.88
Substance: Flag-tagged wild type Csn5 (from UniProt Q92905) T103I

Kd [12]: 13 nM
Substance: CSN^5E76A (from UniProt Q13098 1-491; P61201 1-443; Q9UNS2 1-423; Q9BT78 1-406; Q92905 1-334; Q7L5N1 1-327; Q9H9Q2 1-264; Q99627 1-209) (complex)

KM of deneddylation of Cul1-N8/Rbx1^∆RING (with the sortase sequence, not dansylated) by CSN [13]: 5 nM
Substance: COP9-Signalosome (CSN), wild type (from UniProt Q13098 1-491; P61201 1-443; Q9UNS2 1-423; Q9BT78 1-406; Q92905 1-334; Q7L5N1 1-327; Q9H9Q2 1-264; Q99627 1-209) (complex)
